Results on two molecules are retold here after publication PMC7948397, “A novel soluble complement receptor 1 fragment with enhanced therapeutic potential” (The Journal of Biological Chemistry, 2020).

Assay [1] concerns the target T1, plasma-derived human C3b (human, UniProt P01024 23-667; P01024 749-1663).
T1 construct: human complement C3, beta chain; human complement C3b, alpha' chain (C3 alpha chain without C3a); source: bought: Complement Technology, plasma-derived
The experiment in a line: SPR; His-tagged CSL040 or HuCR1(1971) captured on a Ni-NTA chip to 75-100 RU, C3b or C4b injected as analyte; Biacore T200, 37 °C; 10 mM Hepes, 150 mM NaCl, 0.1% bovine serum albumin, pH 7.3; 1:1 model with a term for mass transport. To be noted: both partners purified. For orientation: Surface plasmon resonance follows binding to a sensor surface in real time, without labels.

For assay [2], the target named is T2, CR1 (soluble analyte of the reverse SPR experiment; construct not named) (human, UniProt P17927 42-1971).
T2 construct: human complement receptor 1, soluble
Briefly: SPR; reverse format: C3b or C4b immobilised by amine coupling (230 RU, only 20% active), CR1 as analyte; apparent affinities; data not shown. Particulars: both partners purified.

T1 sequence (P01024 23-667, chain 1 of 2): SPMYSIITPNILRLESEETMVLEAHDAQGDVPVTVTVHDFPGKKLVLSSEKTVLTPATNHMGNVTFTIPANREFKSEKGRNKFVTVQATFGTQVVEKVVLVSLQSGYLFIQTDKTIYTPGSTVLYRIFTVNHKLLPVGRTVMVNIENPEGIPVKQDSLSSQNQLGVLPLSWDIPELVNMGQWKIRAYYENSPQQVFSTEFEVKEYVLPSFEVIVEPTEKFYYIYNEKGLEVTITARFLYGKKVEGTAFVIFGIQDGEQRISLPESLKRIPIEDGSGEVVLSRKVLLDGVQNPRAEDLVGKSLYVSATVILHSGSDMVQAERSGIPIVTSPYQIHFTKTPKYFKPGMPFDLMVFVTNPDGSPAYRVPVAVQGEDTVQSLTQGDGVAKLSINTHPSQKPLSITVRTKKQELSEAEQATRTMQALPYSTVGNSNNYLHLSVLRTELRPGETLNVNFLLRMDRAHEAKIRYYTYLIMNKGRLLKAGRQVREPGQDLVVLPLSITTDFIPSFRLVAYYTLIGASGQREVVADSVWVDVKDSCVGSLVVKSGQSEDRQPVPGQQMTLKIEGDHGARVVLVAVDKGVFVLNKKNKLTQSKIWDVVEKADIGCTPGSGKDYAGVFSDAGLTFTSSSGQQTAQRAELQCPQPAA
T1 sequence (P01024 749-1663, chain 2 of 2): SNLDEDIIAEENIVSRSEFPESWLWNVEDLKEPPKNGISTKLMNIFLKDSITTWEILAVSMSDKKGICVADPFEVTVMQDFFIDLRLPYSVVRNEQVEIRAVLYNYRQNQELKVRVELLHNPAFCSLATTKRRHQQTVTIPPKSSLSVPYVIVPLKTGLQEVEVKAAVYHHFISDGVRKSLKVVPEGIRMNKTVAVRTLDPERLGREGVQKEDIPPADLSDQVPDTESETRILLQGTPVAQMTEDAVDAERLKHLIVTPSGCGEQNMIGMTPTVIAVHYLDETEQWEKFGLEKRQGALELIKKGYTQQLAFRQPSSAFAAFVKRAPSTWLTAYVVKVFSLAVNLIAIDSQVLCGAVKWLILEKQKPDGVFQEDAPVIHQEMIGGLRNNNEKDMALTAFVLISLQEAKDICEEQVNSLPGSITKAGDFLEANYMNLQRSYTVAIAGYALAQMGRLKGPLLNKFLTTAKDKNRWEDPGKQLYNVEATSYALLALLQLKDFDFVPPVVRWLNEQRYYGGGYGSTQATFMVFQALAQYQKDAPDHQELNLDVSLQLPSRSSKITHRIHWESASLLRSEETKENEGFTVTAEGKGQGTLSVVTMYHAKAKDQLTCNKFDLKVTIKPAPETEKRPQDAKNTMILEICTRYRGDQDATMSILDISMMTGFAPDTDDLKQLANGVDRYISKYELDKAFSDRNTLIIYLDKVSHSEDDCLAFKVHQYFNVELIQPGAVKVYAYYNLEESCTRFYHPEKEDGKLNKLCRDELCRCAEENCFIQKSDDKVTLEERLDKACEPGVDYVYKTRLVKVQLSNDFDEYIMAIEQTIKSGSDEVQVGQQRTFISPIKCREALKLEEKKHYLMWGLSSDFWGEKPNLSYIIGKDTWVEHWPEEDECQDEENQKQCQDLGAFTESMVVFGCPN
T2 sequence (P17927 42-1971): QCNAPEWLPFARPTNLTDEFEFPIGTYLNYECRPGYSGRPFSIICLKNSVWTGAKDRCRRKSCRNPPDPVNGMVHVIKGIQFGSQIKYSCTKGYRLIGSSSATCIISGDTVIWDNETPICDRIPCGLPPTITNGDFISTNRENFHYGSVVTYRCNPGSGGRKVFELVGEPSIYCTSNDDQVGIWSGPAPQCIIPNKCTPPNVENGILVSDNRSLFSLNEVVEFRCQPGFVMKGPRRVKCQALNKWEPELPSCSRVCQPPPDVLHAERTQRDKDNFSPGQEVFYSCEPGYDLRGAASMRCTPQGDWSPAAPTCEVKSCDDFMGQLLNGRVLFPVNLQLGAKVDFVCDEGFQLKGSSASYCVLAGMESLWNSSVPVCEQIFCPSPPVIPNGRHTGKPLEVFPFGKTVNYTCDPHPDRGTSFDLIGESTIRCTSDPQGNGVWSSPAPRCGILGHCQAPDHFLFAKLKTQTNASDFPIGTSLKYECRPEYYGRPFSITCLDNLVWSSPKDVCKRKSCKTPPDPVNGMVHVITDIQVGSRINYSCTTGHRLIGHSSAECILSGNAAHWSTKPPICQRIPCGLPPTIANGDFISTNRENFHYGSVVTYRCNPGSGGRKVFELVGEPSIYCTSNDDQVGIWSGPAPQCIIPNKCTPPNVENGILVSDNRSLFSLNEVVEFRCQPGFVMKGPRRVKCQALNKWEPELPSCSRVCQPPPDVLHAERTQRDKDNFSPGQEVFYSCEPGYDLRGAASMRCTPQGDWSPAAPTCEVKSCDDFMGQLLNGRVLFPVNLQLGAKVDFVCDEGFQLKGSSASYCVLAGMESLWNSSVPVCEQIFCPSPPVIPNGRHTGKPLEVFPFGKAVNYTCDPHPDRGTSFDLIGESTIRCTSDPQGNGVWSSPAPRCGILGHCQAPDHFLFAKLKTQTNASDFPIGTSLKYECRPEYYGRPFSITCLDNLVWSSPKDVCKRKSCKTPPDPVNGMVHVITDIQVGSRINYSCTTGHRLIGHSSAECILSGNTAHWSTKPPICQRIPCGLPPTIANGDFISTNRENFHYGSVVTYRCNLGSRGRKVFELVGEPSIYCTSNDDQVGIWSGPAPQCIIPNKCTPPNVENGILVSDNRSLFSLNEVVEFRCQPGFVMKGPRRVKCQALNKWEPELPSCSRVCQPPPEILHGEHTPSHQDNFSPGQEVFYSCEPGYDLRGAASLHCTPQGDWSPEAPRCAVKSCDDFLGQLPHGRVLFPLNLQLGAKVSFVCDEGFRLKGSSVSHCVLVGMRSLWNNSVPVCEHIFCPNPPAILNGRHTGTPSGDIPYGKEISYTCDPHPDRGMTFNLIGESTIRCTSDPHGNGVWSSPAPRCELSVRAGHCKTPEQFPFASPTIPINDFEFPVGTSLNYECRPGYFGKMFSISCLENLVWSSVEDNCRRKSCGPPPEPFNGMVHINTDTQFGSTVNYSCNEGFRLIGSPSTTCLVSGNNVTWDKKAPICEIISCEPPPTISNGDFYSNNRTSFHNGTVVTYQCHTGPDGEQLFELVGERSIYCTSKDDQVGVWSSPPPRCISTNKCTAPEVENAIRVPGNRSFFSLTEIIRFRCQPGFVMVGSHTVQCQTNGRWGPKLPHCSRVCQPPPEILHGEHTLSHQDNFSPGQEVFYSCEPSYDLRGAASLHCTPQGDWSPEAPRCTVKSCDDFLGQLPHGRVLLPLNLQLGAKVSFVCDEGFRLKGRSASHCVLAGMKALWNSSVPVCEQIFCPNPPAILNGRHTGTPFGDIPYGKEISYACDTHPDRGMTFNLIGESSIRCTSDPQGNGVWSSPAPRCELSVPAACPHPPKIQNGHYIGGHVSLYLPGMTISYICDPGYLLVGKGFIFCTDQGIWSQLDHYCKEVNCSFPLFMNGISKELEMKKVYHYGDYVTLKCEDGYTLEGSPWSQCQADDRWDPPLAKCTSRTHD

B1: HuCR1(1392)/CSL040, soluble human complement receptor 1 truncated at amino acid 1392 (LHR-A, LHR-B and LHR-C) (receptor)
chain: not shown
notes: signal peptide in the construct; human complement receptor 1 (HuCR1, CD35), endogenous signal peptide, ends at amino acid 1392 (LHR-A, LHR-B, LHR-C; lacks LHR-D); amino acid numbering based on Met + 1; cDNA GenBank NP_000564, codon optimised; N-glycosylated, highly sialylated; A version without the His-tag was also made, but the SPR used the His-tagged protein; also called LHR-ABC; not shown: …
As a reminder, the koff is the rate constant with which the complex falls apart. The low end stands for a long-lived complex, the high end for a short-lived complex. As a reminder, the kon is a measure of how fast the partners come together. A lower kon goes with slower complex formation. With B1, in assay [1], the Kd came to 0.265 µM, the koff was determined as 0.00654 s⁻¹ and the kon is 24800 M⁻¹ s⁻¹.

B2: plasma-derived human C4b (ligand)
chain 1: KPRLLLFSPSVVHLGVPLSVGVQLQDVPRGQVVKGSVFLRNPSRNNVPCSPKVDFTLSSERDFALLSLQVPLKDAKSCGLHQLLRGPEVQLVAHSPWLKDSLSRTTNIQGINLLFSSRRGHLFLQTDQPIYNPGQRVRYRVFALDQKMRPSTDTITVMVENSHGLRVRKKEVYMPSSIFQDDFVIPDISEPGTWKISARFSDGLESNSSTQFEVKKYVLPNFEVKITPGKPYILTVPGHLDEMQLDIQARYIYGKPVQGVAYVRFGLLDEDGKKTFFRGLESQTKLVNGQSHISLSKAEFQDALEKLNMGITDLQGLRLYVAAAIIESPGGEMEEAELTSWYFVSSPFSLDLSKTKRHLVPGAPFLLQALVREMSGSPASGIPVKVSATVSSPGSVPEVQDIQQNTDGSGQVSIPIIIPQTISELQLSVSAGSPHPAIARLTVAAPPSGGPGFLSIERPDSRPPRVGDTLNLNLRAVGSGATFSHYYYMILSRGQIVFMNREPKRTLTSVSVFVDHHLAPSFYFVAFYYHGDHPVANSLRVDVQAGACEGKLELSVDGAKQYRNGESVKLHLETDSLALVALGALDTALYAAGSKSHKPLNMGKVFEAMNSYDLGCGPGGGDSALQVFQAAGLAFSDGDQWTLSRKRLSCPKEKTT
chain 2: ALEILQEEDLIDEDDIPVRSFFPENWLWRVETVDRFQILTLWLPDSLTTWEIHGLSLSKTKGLCVATPVQLRVFREFHLHLRLPMSVRRFEQLELRPVLYNYLDKNLTVSVHVSPVEGLCLAGGGGLAQQVLVPAGSARPVAFSVVPTAAAAVSLKVVARGSFEFPVGDAVSKVLQIEKEGAIHREELVYELNPLDHRGRTLEIPGNSDPNMIPDGDFNSYVRVTASDPLDTLGSEGALSPGGVASLLRLPRGCGEQTMIYLAPTLAASRYLDKTEQWSTLPPETKDHAVDLIQKGYMRIQQFRKADGSYAAWLSRDSSTWLTAFVLKVLSLAQEQVGGSPEKLQETSNWLLSQQQADGSFQDPCPVLDRSMQGGLVGNDETVALTAFVTIALHHGLAVFQDEGAEPLKQRVEASISKANSFLGEKASAGLLGAHAAAITAYALTLTKAPVDLLGVAHNNLMAMAQETGDNLYWGSVTGSQSNAVSPTPAPRNPSDPMPQAPALWIETTAYALLHLLLHEGKAEMADQASAWLTRQGSFQGGFRSTQDTVIALDALSAYWIASHTTEERGLNVTLSSTGRNGFKSHALQLNNRQIRGLEEELQFSLGSKINVKVGGNSKGTLKVLRTYNVLDMKNTTCQDLQIEVTVKGHVEYTMEANEDYEDYEYDELPAKDDPDAPLQPVTPLQLFEG
chain 3: EAPKVVEEQESRVHYTVCIWRNGKVGLSGMAIADVTLLSGFHALRADLEKLTSLSDRYVSHFETEGPHVLLYFDSVPTSRECVGFEAVQEVPVGLVQPASATLYDYYNPERRCSVFYGAPSKSRLLATLCSAEVCQCAEGKCPRQRRALERGLQDEDGYRMKFACYYPRVEYGFQVKVLREDSRAAFRLFETKITQVLHFTKDVKAAANQMRNFLVRASCRLRLEPGKEYLIMGLDGATYDLEGHPQYLLDSNSWIEEMPSERLCRSTRQRAACAQLNDFLQEYGTQGCQV
notes: human complement C4, beta chain; human complement C4b, alpha' chain (C4 alpha chain without C4a); human complement C4, gamma chain; Plasma-derived C4b is likely a mixture of C4A and C4B forms; source: bought: Complement Technology, plasma-derived; copies: + +
As to B2, the Kd in assay [2] is roughly 4.9 µM.
